Ends that are not written are not given here.
Key:
Assay in all cases: SPR
[1] = biological target: recombinant human transferrin receptor (TfR) protein (human, UniProt P02786 101-760)
[2] = biological target: recombinant mouse transferrin receptor (TfR) protein (mouse, UniProt Q62351 1-763)
[3] = biological target: low-density lipoprotein receptor-related protein 1 (LRP-1), human (human)

Chain of recombinant human transferrin receptor (TfR) protein (P02786 101-760): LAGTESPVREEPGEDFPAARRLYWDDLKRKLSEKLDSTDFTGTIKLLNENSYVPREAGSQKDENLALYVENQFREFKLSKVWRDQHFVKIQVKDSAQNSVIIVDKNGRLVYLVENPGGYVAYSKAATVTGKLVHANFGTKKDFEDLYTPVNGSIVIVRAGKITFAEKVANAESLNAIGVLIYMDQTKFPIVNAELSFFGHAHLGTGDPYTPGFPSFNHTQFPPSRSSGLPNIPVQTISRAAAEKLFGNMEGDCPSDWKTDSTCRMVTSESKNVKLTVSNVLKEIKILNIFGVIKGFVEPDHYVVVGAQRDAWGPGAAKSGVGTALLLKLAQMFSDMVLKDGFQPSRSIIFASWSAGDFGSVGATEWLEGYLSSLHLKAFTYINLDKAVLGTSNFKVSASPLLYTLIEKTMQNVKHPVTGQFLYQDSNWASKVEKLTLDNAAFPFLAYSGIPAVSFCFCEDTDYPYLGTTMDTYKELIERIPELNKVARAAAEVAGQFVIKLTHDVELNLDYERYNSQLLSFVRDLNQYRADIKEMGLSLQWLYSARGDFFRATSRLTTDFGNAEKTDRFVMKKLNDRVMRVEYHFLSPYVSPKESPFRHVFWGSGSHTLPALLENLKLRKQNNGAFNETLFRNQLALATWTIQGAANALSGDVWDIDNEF
Chain of recombinant mouse transferrin receptor (TfR) protein (Q62351 89-763): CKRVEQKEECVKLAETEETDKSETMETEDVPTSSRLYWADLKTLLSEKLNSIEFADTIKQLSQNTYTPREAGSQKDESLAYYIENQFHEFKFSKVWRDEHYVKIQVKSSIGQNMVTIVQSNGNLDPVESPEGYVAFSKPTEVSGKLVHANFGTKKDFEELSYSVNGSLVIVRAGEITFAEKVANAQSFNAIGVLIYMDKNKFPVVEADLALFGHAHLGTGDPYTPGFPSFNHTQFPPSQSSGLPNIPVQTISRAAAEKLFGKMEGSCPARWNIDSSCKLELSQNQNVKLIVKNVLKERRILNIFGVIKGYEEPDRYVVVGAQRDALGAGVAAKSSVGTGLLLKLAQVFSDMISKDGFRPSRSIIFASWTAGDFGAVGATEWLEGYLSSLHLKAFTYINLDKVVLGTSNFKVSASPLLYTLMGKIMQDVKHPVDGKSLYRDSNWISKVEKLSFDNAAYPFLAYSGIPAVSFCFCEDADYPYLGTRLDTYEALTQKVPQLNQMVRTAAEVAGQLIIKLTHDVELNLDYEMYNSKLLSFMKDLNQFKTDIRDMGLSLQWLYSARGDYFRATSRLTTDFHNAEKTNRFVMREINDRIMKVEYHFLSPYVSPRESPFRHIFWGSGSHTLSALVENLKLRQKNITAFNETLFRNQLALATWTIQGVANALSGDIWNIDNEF

B1: MTfp (peptide 1), peptide derived from melanotransferrin (peptide)
peptide: FRCLVENRGDVPFVTRIR-NH2
- Kd [1]: 507 nM
- Kd [2]: 1300 nM
- Kd [3]: 0.57 nM

B2: GYR (peptide 2) (peptide)
peptide: GYRPVHNIRGHWAPGK-NH2
- Kd [1]: 171000 nM
- Kd [3]: 100 nM
